Experimental data published in the supplement of paper PMC9170038.

Test system: MS2 coat protein
Experiment: apparent KD of MS2 coat protein; designed switch direction (-1 OFF switch, 1 ON switch): -1; higher = weaker reporter binding
In short: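 The buffer was Tris-HCl pH 7.5 with KCl, MgCl2, BSA, DTT, tRNA and Tween-20. In it, SNAP-549-labelled MS2 coat protein was titrated in doubling steps from 0.7 or 1.5 nM to 3 µM over chip-bound RNA switches transcribed by stalled E. coli RNA polymerase on Illumina chips. Apparent KD is the per-design median over clusters of curve fits to normalised fluorescence.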

[1] = Eterna round: R95, input ligand: FMN 200 uM
[2] = Eterna round: R95, input ligand: microRNA oligo, concentration not stated
[3] = Eterna round: R95, input ligand: none
[4] = input ligand: microRNA oligo, concentration not stated

| Sequence | apparent KD of MS2 coat protein [2] [nM] | apparent KD of MS2 coat protein (input ligand: FMN 200 uM) [nM] | apparent KD of MS2 coat protein (input ligand: none) [nM] | further results |
| --- | --- | --- | --- | --- |
| ACAAGCUUUUUGUUCGUCUUAUAAUAAUAAAUAAAGAUAACAUGAGGAUCACCCAUGUAACAAAGACGGACUCAUGU [Sesor Array 18 - Jieux - Sensor v3, turn-off variant 2] (puzzle: Sensor v3, turn-off variant 2) | 279 | – | – | apparent KD of MS2 coat protein [1]: 18.2 nM; apparent KD of MS2 coat protein [3]: 16.3 nM |
| CUGGUCCGAGGAUAUAUUAAGUGAUACAUGAGGAUCACCCAUGUAAUUUAAUGGAUAUAAAUAGAAGGCGGACUAG [Mat - Exclusion 5 - JL mod - D48] (puzzle: Exclusion 5) | 26.4 | – | – | apparent KD of MS2 coat protein [1]: 42.9 nM; apparent KD of MS2 coat protein [3]: 32.8 nM |
| GAUGCUUCGGCAUCUACAAGCUUUUUGCUCGUCUUAUUAACAUGAGGAUCACCCAUGUUAAUGAGACCUCAUGUAUU [Sensor v3 - turn-off variant 2 - 7] (puzzle: Sensor v3, turn-off variant 2) | 14.9 | – | – | apparent KD of MS2 coat protein [1]: 13.5 nM; apparent KD of MS2 coat protein [3]: 11.1 nM |
| CAUCACUGUGUCAGGAUAUCAUUUGGACGUCUAAGUGAGAAGGGACAUGAGGAUCACCCAUGUGGAGCUGGCCA [Eternabot (L1) Solution 63] (Eterna round: R97, puzzle: Brourd's mod of Exclusion 4) | – | 73.5 | 41.8 | – |
| ACGCGAGUAGGAGGAUAUUCUGAGCGCGGGCCAGAAGAAGGCCUAGAUCGUGAACAUGAGGAUCACCCAUGUGGGAUGAUCUAA [Vevexeaus] (Eterna round: R96, puzzle: Exclusion NG 1) | – | 180 | 307 | apparent KD of MS2 coat protein [4]: 224 nM |
| CUGGAGUCAGGAUAUAGGGCGGCUAUAACGCUCGCGCCGACCUAGAAGGGACUUGAGGAUCACCCAAGUAAAAU [Teerlaxe] (Eterna round: R97, puzzle: Exclusion 4) | – | 167 | 55.1 | – |
| AGCAUGAGAGAGGAUAUGGUCGCCGCAACAUGACCAGAAGGCUCAACAUGAGGAUCACCCAUGUGGCCCGGCUC [Eternabot (L1) Solution 33] (Eterna round: R97, puzzle: Exclusion 6) | – | 33.2 | 19.5 | – |
| GAUAUGUAAGGAUAUCGUGCAAGUUUCAAAAGAGGCUUGUGCGAGAAGGUACAUGAGGAUCACCCAUGUAGGUU [Omei Ex4 B14] (Eterna round: R97, puzzle: Exclusion 4) | – | 116 | 29.6 | – |
| AAAACUCACGUAGGAUAUCAUUCCUUAAGGUAGUGAGAAGGACGUGACUACAUGUCCUAAAACAUGAGGAUCACCCAUGUAGGC [Riis] (Eterna round: R96, puzzle: Exclusion NG 1) | – | – | – | apparent KD of MS2 coat protein [4]: 24.2 nM |
| GAGAAGGUAGGAUAUACGAAGAAAGAGGGUAGGAAUAAGACACAUGAGGAUCACCCAUGUAGAAGGACCAAGAG [Mat - Exclusion 2 - Mod of my Tesla design - D49] (puzzle: Exclusion 2) | 21.2 | – | – | apparent KD of MS2 coat protein [1]: 32.4 nM; apparent KD of MS2 coat protein [3]: 22.9 nM |
| GGUACUCAAAGAGUACCAAUACGAACAUGAGGAUCACCCAUGUAGGAUAUGCUACUCAAAGAGUAGCAGAAGGAUAUGAUCCCU [Far Half Aptamer v12] (Eterna round: R96, puzzle: Exclusion NG 3) | – | 211 | 126 | apparent KD of MS2 coat protein [4]: 99.6 nM |
| GGCACACAUGAGGAUCACCCAUGUGAGGAUAUGGUGCGAUCGUCGAUAGACGAUAGCACCAGAAGGCACAUGCC [Mat - Exclusion 1 - Eli Mod - D5] (Eterna round: R97, puzzle: Exclusion 1) | – | 33.6 | 15.4 | – |
| CUAUUGCGAGGAUAUGAUUUAAAUAACAUGAGGAUCACCCAUGUUUUUACGUUGUUAUGUUCAGAAGGCGUAUUGU [JR_E5_Sub024] (puzzle: Exclusion 5) | 41.4 | – | – | – |
| GUGCAACAUGAGGAUCACCCAUGUCAGGAUAUGCGAAUUUCAUCAAAAGAUGAAAUUUGCAGAAGGGACUGUAC [Omei Ex1 A20] (Eterna round: R97, puzzle: Exclusion 1) | – | 40.6 | 48.9 | – |
| CUGAUGUGAGGAUAUCUACGCCAUGUCUUUGACAUGGCGCAAGAGAAGGCACAUGAGGAUCACCCAUGUACUUC [jl-ex4-4.41 ViennaUCT mod] (Eterna round: R97, puzzle: Exclusion 4) | – | 143 | 27.9 | – |
| GGGCCCGGAGGAUAUACAUGAGGAUCACCCAUGUAGGGCCCGGGUAUUCCCGGGCCCUGUAGAAGGUUGGGCCC [-44, -41.2 kcal, A 19%, 0,5c] (Eterna round: R97, puzzle: Exclusion 3) | – | 17.8 | 15.8 | – |
| AAGAUGCGGGUAGGAUAUGGAGAGAAAGAAAGACCAGAAGGAUUGGUCACACAACAUGAGGAUCACCCAUGUGUGUGUUGCGAA [EX ng 1 6.1] (Eterna round: R96, puzzle: Exclusion NG 1) | – | – | – | apparent KD of MS2 coat protein [4]: 9.22 nM |
| UUUACAAGCUUUAGAUCCCACAUGAGGAUCACCCAUGUUGCUGCCGUGAGGUAGCUUUUAACUAAUGCUCGUCUUAU [JL TOV1 3.41] (Eterna round: R97, puzzle: Sensor, turn-off variant 1) | – | 103 | 124 | – |

| Sequence | apparent KD of MS2 coat protein [2] [nM] | apparent KD of MS2 coat protein (input ligand: FMN 200 uM) [nM] | apparent KD of MS2 coat protein (input ligand: none) [nM] | further results |
| --- | --- | --- | --- | --- |
| GGGCGUGAAGGAUAUACAUGAGGAUCACCCAUGUGGGAGGAGAGUGGUGAGGAGGCUGGUAGAAGGUCAGGAUG [JR_Exclusion3_Sub007] (puzzle: Exclusion 3) | 42.6 | – | – | – |
| GACUUCUCUGAGGAUAUUGCAUCAUACGAUAAAUAAGAAGGCAGAACAUGAGGAUCACCCAUGUGGGUUUUUAG [Bingo-Bango-32] (Eterna round: R97, puzzle: Exclusion 6) | – | 135 | 68.6 | – |
| AGAUCACAUGAGGAUCACCCAUGUGAGGAUAUGAUACUAUGUACUUCGGUACAUAGUAUCAGAAGGCAUAUGAA [Ex1-3: 73] (puzzle: Exclusion 1) | 28.9 | – | – | – |
| UACCGGCGGACCGAGGCUUUUUGCUCGUCUUAUACUACAACAUGAGGAUCACCCAUGUGGUGGUGGUCCGUUGUAGU [JL ViennaUCT Bitein mod 5] (puzzle: Sensor v3, turn-off variant 2) | 6.09 | – | – | apparent KD of MS2 coat protein [1]: 21.7 nM; apparent KD of MS2 coat protein [3]: 16.2 nM |
| ACCUCACAUGAGGAUCACCCAUGUCAGGAUAUCUUUUAUUGCAGCAAUCCUGUCGCUGAGAGAAGGGACAUUAA [EX1 #26] (Eterna round: R97, puzzle: Exclusion 1) | – | 30.7 | 26.5 | – |
| AAUAAUGAUAAGGAUAUCACUAGCUGCGGCUAGUGAGAAGGUAUCACAUGAGGAUCACCCAUGUGUUCCAAUAA [Ex6/6-A3] (Eterna round: R97, puzzle: Exclusion 6) | – | 33.1 | 14.1 | – |
| GACCGGUAAGGAUAUGUAUCUUUCAGGACACUACCGAAGAUGCAGAAGGUACAUGAGGAUCACCCAUGUGGGCU [Eternabot (L1) Solution 36] (Eterna round: R97, puzzle: Exclusion 4) | – | 227 | 75.8 | – |
| ACAUGUCAUCUAGGAUAUUGGACACAUGAGGAUCACCCAUGUACCCGGAGGCUUUACUAUGAGUUCGAGAAGGAGAUGUACAUG [Ex NG2 #72] (Eterna round: R96, puzzle: Exclusion NG 2) | – | 133 | 57.9 | apparent KD of MS2 coat protein [4]: 38.6 nM |
| CCCGUGUGAGGAUAUACUCUAAGCAAUGUCAGUUGCUACAGGUAGAAGGCACAUGAGGAUCACCCAUGUCCCGG [EX4 C.24] (Eterna round: R97, puzzle: Exclusion 4) | – | 130 | 241 | – |
| CAAAACCUAGGAUAUACAUGAGGAUCACCCAUGUCGGGCCUACGCUAAACGCGCCUCAGUAGAAGGAGGGAAAC [Usasoon] (puzzle: Exclusion 3) | 52.6 | – | – | apparent KD of MS2 coat protein [1]: 135 nM; apparent KD of MS2 coat protein [3]: 63.2 nM |
| AGAUGGCGAGGAUAUACAUGAGGAUCACCCAUGUGAAGAAGAAUAGUGAGGAAGAAAAGUAGAAGGCGCUGUCA [Mat - Exclusion 3 - Mod of Salish D32] (puzzle: Exclusion 3) | 49.4 | – | – | – |
| UUUUAACAUGAGGAUCACCCAUGUGAGGAUAUCGAAAUUUAUAUUUAUAUUUAUAUUUCGAGAAGGCACAUUUU [JMF 97] (puzzle: Exclusion 1) | 131 | – | – | – |
| UUAAAUCAUGUAGGAUAUGCGUGGAGAAACUAUGCAGAAGGACAUGAGGAUCACCCAUGUGCUUCCGUCUGAGAACAGACGGUA [Mat - Exclusion NG 1 - Mod of JL - D14] (Eterna round: R96, puzzle: Exclusion NG 1) | – | 285 | 57.9 | apparent KD of MS2 coat protein [4]: 43.2 nM |
| UGUCCAAUACAGGAUAUUCUCGCGUAGUAGCAAGGAGAAGGGUAGACAUGAGGAUCACCCAUGUGAUUCAUCUG [Eternabot (L2) Solution 68] (Eterna round: R97, puzzle: Exclusion 6) | – | 438 | 575 | – |
| AAUCCUCUGCAGGAUAUCACUGGAUGAACCAGCUGAGAAGGGCGCACAUGAGGAUCACCCAUGUUGUAAGUAGC [Eternabot (L1) Solution 80] (Eterna round: R97, puzzle: Exclusion 6) | – | 132 | 51.7 | – |
| UAAAUGUGAGGAUAUCAGGUGUGCUAGAGAACUGGUACAUCUGAGAAGGCACAUGAGGAUCACCCAUGUUCUUC [Mat - Exclusion 4 - Mod of JL - D56] (puzzle: Exclusion 4) | 38.3 | – | – | – |
| CUGGUGUGAGGAUAUCAAAGACCUCGGGAUAGUACCGAGGAUGAGAAGGCACAUGAGGAUCACCCAUGUAACAA [Armaleti] (puzzle: Exclusion 4) | 22.1 | – | – | – |
